{
  "source": "paper PMC3285597",
  "test_system": "human Oct-1 E30D/M33L (rodent-like);VP16ΔC;HCF-1N380 (beta-propeller domain) (Homo sapiens;HSV-1;Homo sapiens)",
  "experiment": "EMSA",
  "details": "10 mM Hepes pH 7.9, 75 mM KCl, 1 mM EDTA, 10 mM DTT, 1 µg poly-dI-dC, up to 4 µl reticulocyte lysate, room temperature 20 min; 4% native gel in 1x …",
  "data": [
    {"substance": "ICP0 (OCTA+)TAATGARAT probe", "values": [
      {"measurement": "binding signal (fold reduction of VIC vs wild type Oct-1)", "value": "> 100"}
    ]}
  ]
}
